Assay results from patent publication US20240132617A1 (VISTERRA, published 2024).

Target: T1, human C3b (human, UniProt P01024 23-667; P01024 749-1663, limits assumed)
T1 construct: C3b is its two-chain fragment (beta chain plus alpha' chain, without C3a); also called complement component 3b
Experiment: antibody levels measured by capture on human C3b versus Cynomolgus C3b (FIG. 1C and FIG. 1D)
Method: In this study, pharmacokinetics of anti-C3b antibodies was determined in non-human primates. First, Ab1 (anti-C3b VHH fused to modified IgG4 Fc) and control Ab (IC12; control antibody) were intravenously administered at 10 mg/kg to Cynomolgus monkeys. Plasma samples were collected pre-administration and at 30 minutes, 6 hr, 24 hr, 48 hr, 120 hr, 336 hr, 456 hr, 672 hr, and 792 hr post administration, and % of antibody remaining was measured.
To confirm that the C3b antibody of the present invention binds to human C3b with high affinity, in addition to Cynomolgus C3b, concentrations of antibodies to human C3b or Cynomolgus C3b were measured.

T1 sequence (P01024 23-667 limits assumed, chain 1 of 2): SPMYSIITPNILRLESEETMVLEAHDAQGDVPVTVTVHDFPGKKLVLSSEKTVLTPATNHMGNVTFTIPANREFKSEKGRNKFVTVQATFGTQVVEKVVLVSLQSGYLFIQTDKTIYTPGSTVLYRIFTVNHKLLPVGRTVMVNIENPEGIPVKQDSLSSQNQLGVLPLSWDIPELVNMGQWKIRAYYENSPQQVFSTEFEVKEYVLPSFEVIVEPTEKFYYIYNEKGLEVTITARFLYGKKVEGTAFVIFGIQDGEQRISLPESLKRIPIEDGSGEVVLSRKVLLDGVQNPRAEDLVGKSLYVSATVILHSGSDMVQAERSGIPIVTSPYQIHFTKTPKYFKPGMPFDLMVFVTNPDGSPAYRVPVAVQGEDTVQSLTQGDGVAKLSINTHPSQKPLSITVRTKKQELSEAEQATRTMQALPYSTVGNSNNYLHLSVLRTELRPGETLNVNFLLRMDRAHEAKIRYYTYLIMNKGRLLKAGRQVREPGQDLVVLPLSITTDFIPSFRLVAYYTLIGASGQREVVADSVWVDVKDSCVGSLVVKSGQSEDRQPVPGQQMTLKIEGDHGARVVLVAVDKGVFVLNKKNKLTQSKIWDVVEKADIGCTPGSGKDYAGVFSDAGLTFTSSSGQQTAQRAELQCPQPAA
T1 sequence (P01024 749-1663 limits assumed, chain 2 of 2): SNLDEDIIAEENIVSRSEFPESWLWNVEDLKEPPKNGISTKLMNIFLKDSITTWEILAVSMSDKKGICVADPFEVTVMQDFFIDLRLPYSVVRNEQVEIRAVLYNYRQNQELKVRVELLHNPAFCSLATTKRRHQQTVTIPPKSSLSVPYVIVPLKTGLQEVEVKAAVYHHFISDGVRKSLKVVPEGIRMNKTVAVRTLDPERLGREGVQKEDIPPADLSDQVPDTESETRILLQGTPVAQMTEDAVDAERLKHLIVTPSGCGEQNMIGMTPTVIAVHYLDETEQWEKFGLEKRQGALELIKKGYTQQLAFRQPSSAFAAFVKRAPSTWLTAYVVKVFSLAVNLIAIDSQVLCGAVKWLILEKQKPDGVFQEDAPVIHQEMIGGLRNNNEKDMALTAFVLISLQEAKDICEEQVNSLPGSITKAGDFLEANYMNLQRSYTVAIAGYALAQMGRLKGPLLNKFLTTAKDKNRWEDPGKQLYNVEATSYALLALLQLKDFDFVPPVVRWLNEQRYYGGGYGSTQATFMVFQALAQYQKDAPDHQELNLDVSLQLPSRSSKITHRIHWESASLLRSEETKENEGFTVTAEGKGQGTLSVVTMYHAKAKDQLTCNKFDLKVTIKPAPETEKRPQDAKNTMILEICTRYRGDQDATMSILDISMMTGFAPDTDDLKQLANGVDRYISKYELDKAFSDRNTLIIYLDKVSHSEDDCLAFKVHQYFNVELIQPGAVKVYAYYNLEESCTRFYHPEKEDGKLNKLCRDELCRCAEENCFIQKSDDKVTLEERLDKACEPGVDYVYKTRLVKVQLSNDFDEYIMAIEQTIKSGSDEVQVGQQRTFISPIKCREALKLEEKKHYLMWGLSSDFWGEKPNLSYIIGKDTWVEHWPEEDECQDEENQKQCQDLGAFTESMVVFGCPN

B1: Ab1 (anti-C3b VHH fused to modified IgG4 Fc) (Fc fusion)
chain: EVQLLESGGGLVQPGGSLRLSCAASGRTFSNYHMGWFRQAPGQGREFVATIIRTGTTIYYADSVKGRFTISRDNSKNTLYLQMNSLRAEDTAVYYCAAATSGWHIKTVTPYEYWGQGTLVTVSSESKYGPPCPPCPAPEVEGGPSVFLFPPKPKDTLMISRTPEVTCVVVGVSQEDPEVQFNWYVDGVEVHNAKTKPREEQFNSTYRVVSVLQVLHVDWLNGKEYKCKVSNKGLPSSIEKTISKAKGQPREPQVYTLPPSQEEMTKNQVSLTCLVKGFYPSDIVVEWESNGQPENNYKTTPPVLDSDGSFFLYSRLTVDKSRWQEGNVFSCSVMHEALHNHYTQKSLSLSLGK
notes: In the assay Ab1 was in plasma of dosed Cynomolgus monkeys; also called anti-C3b Ab1; C3b antibody
fold greater affinity as compared to Cynomolgus C3b: ~100 fold
